Experimental data taken from the nanobody polyreactivity screen of Harvey et al. (2022).

Test: yeast display, Sf9 membrane polyspecificity reagent, FACS + sequencing; frameworks hold sequencing errors
Method in brief: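 Genes from sorted yeast were amplified by colony PCR, read by MiSeq 2 × 250 sequencing and filtered on CDR length. These cells carried a synthetic nanobody library in Saccharomyces cerevisiae BJ5465 and were sorted by FACS into low and high (top ~1%) gates on anti-HA and streptavidin fluorescence. Polyreactivity is labelled according to the gate of origin.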

| Sequence | polyreactivity (PSR sort gate) |
| --- | --- |
| QVQLVESGGGLVQAGGSLRLSCAASGRIIYTYAMGWYRQAPGKERELVAAISWSGGSTYYADSVKGRFTISRDNAKNTVYLQMKSLKPEDTAVYFCNAAYYGYENLSKRGYWGQGTQVTVSS | high polyreactivity |
| QVQLVESGGGLVQAGGSLRVSCAASGRIFYPYAMGWYRQAPGKERELVAAIRRSGVDTYYADSVKGRFTISRDNAKNTVYLQMNSLKPEDTAVYYCDADPYWFFPHYDSWGQGTQVTVSS | low polyreactivity |
| QVQLVDSGGGLVQAGGSLRLSCAASGITFGNYAMGWYRQAPGKERELVASISWNVGSTYYADSVKGRFTISRDNAKNTVYLQMNSLKPEDTAVYYCARGYDRPRVATFHRFDYWGQGTQVTVSS | low polyreactivity |
| QVQLVESGGGLVQAGCSLRLSCAASGSIFSTYAMGWYRQAPGKERELVAAITSDGTYADSVKGRFTISRDNARNTVYLQMNSLKPEDTAVYYWAAYYPYTRHGDYWGQGTQVTVSS | low polyreactivity |
| QVQLVESGGGLVQAGGSLRLSCAASGSTFGVYAMGWYRPAPGKERELVAAIRWSGGGTYYADSVKGRFTISRDNAKNTVYLQMNSLKPEDTAVYYCNTDILSIYAEPYYFTDVDYWGQGTQVTVSS | low polyreactivity |
| QVQLVESGGGLVQAGGSLRLSCAASGRILRYNAMGWYRQAAGKERELVAAISSGGSTYADSVKGRFTISRDNAKNTVYLQMNSLKPDDTAVYYCNAPSVGAAFDYWGQGTQVTVSS | high polyreactivity |
| QVQLVESGGGLVQAGGSLRLSCAASGNIFSSYAMGWYRQAPGKERELVARITTSAGRTYYADSVKGRFTISRDNAKNTVYLQMNSLKREETAVYSCAARGQSAYSIWRYYYWGQGTQVTVSS | high polyreactivity |
| QVQLVESGGGLVQAGGSLRLSCAASGITFSRYAMGWYRQAPGKERELVAAISSGGSTYYADSVKGRFTISRDNAKNTVYLQMNSLIPEDTAVYYCAADGLTGSKYRATGYYWGQGTQVTVSS | high polyreactivity |
| QVQLVESGGGLVQAGGSLRLICAASGRIFYYYTMGWYRQAPGKERELVAAITRSGSSTYADSVKGRFTISRDNAKNTVYLQMNSLKPEDTAVYYCAADYIRRYDYWGQGTQVTVSS | low polyreactivity |
| QVQLVESGGGLVQAGGSLRLSCAASGSIFYIYAMGWYRQAPGKERELVAAITWRGGRTYYADSVKGRFTISRDNAKNTVYLQMNSLKPEDTAVYYCAALYAKYYYRYDYWGQGTQVTVSS | high polyreactivity |
| QVQLVESGGGLVQAGGSLRLSCASTGFTFYRYAMGWYRQARGKERELVAAITRSGSRTYYADSVKGRFTISRDNAKNTVYLQMNSLKPEDTAVYYCNAPRPASTDRRRYNYWGQGTQVTVSS | high polyreactivity |
| QVQLVESGGGLVQAGGSLRLSCAASGSIFVVYSMGWYRQAPGKERELVAAISWGIGSTYYADSVKGRFTISRDNAKNTVYLQMNSLKPEDTALYYCAADTDIVLYDYWGQGTQVTVSS | low polyreactivity |
| QVQLVESGGGLVQAGGSLRLSSAASGRIFLLNAMGWYRQAPGKERELVADISFNGGSTYYADSVKGRFTISRDNAKNSVYLQMNSLKPEDTAVYYCAVGSFGVSAYSYYYWGQGTQVTVSS | low polyreactivity |
| QVQLVESGGGLVQAGGSLRLSCAASGRTFWRYAMGWYRQAPGKERELVAGITSRGGSTYYADSVKGRFTISRDNAKNTVYLQMNSLKPEDTAVYYCNRRSQVHSHSKHDYWGQGTQVTVSS | low polyreactivity |
| QAQLVESGGGLVQAGGSLRLSCAASGRTFYYYTMGWYRQAPGKERELVAAISYSGGSTSYADSVKGRFTISRDNAKNTVYLQMNSLKPEDTAVYYCNARYKYYTQRRYHYDYWGQGTQVTVSS | high polyreactivity |
| QVQLVESGGGLVQAGGSLRLSCAASGSTFWLYAMGWYRQAPGKERELVAAIRSGDRTNYADSEKGRFTISRDNAKNTVYLQMNSLKPEDTAVYYCAAVAYLNWTPHYYWGQRTQVTVSS | low polyreactivity |
| KVQLVESGGGLVQAGGSLRVRCAASGFTFGVYAMGWYRQAPGKEREFVAVITWRGGRTYYADSVKGRFTISRDNAQNTVYLQMNSLKPEDTGVYYCNARPRIYLTLYYWGQGTQVSVSS | high polyreactivity |
| QVQLVESGGGLVQAGGSLRLSCAAYGLIFPVYAMGWYRQAPGKEREFVASIWRGGTTYYADSVKGRFTISRDNAKNTVYLQMNRLKPEDTAVYYCAARYYPRGLVFPFTKYDYWGQGTQVTVSS | high polyreactivity |
| QVHLVESGGGLVQAGGSLRLSCAASGSIFVPYAMGWYRQAPRKERELVAAINHGGGRTYADSVKGRFTISRDNAKNSVYLQMNSLKPDDTAVYYCAADGADKIGYYSYYYWGQGTQVTVSS | low polyreactivity |
| QVQLVESGGGLVQAGGSLRLSSAASGSTFHLYAMGWYRQAPGKEREFVAAIRGRGGNTYADSVKGRFTISRDNAKNTVYLQMNSLKPEDTAVYYCAAPLLRDLRSPYSYNYWGQGTQVTVSS | low polyreactivity |
| QVQLVESGGGLVQAGGSLRLRCAASGNTFGYYTMGWYRQAPAKESELVASIDSGGGTNYADSVKGRFTISRDNAKNTVYLQMNRLKPEDTAVYSCAAASPLYWVDDFESGWRYYYWGQGTQVTVSS | low polyreactivity |

| Sequence | polyreactivity (PSR sort gate) |
| --- | --- |
| QVQLEESGGGLVQAGGSLRLSYAASGSIYSYYAMGWYRQAPGKERELVAAISRSGTSTYYADSVKGRFTISRDNAKNTVYLQMNSLKPEDTAVYYFGYYYGGDYWGQGTQVTVSS | high polyreactivity |
| QVQLVESGGGLVQAGGSLRLSCAASGITFGDYAMGWDRQAPGKERELVAGINWSGDGTYYSDSVKGRFTISRDNAKNTFYLQMNSLKPEDTAVYYCAAETFYDYGGYDYWGQGTQVTVSS | low polyreactivity |
| QVQLVESGGGIVQAGGSLRLSCAASGLILYWYAMGLYRQAPGKERYLVAAISISGGSTYYADSVKGRFTISRDNAKNTVYLQMNSLKPEDTAVYYCAAVYFYSWEGDGDYWGQGTQVTVSS | low polyreactivity |
| QVQLVESGGGLVQAGGSLRLSCAASGRTFGSYAMGWYRQAPGKERELVAAIRYRGGSTYYADSVKGRFTISRDNAKNTVYLQMNSLKPEDTAVYYCAAKQGRYNIYSNYDYWGQGTQVTVSS | high polyreactivity |
| QDQLVESGGGLVQAGGSLRLICAASGYTFGHYVMGWYRQAPGKERELVAAITLSGGGTYYADSVKGRFTISRDNAKNTVYLQMNCLKPEDTAVYYCAAVGGEHAKKTYSRYKVDYWGQGTQVTVSS | low polyreactivity |
| QVQLVESGGGLVQAGGSLRLSCAASGSTFGNNAMGLYRQAPGKERELVASINWNGGSTYYADSVKGRFTISRDNAKITVYLQMNSLKPEDTAVYYCNARLYFVEGQDYYYWGQGTQVTVSS | low polyreactivity |
| QVQLVESGGGLVQAGGSLRLSCAASGRIDAYTMGWYRQAPGKERELVAAISTSTSNTYYADSVKGRFTISRDNAKNTVYLQMNSLKPEDTAVYYCDEAYYSPWWGYYWGQGTQVTVSS | low polyreactivity |
| QVQLVESGGGLVQAGGSLRLSCAASGIIFQVYAMGWYRQAPGKERELVAAISDDGSTNYADSVQGRFTISRDNAKNTGYLQMNSLKPEDTAVYYCAKDSWGRLYYRYDYWGQGTQVTVSS | low polyreactivity |
| QVQLVESGGGLVQAGGSLRLSCAASGSTFPRNAMGWYRQAPGKERELVATITSSGGGTYYADSVKGRFTISRDNAKNTVYLQMNSLKPEDTAVYYCNVEVHPYYWVDNFHRFPVLHNYWGQGTQVTVSA | low polyreactivity |
| QVQLVESCGGLVQAGGSLRLSCAASGSIFPYYTMGWYRQAPWKERELVAAISGSGGSTYYADSVKGRFTISRDNAKNTVYLQMNSLKAEYTAVYYCAAYRRTWFDYWGQGTQVTVSS | high polyreactivity |
| QVQLVESGGGLVQAGGSLRLSCAASGSIFYVNAMGWYRQAPGKERELVASITASGGTTYYADSVKGRFTISRDNAKNTVYLQMNSLKPEDTAVYYCAATFIQVVVNVQLYDYDYWGQGTQVTVSS | low polyreactivity |
| QGQLVESGGGLVQAGGSLRLTCAASGRIFKWYAMGWYIQETGKERELVAAISSAGSTYYADSVKGRFTISRDNAKNTVYLQLNSLKPEDTAVYYCAARKYTFRRKSRYGYWGQGTQVTVSS | high polyreactivity |
| QVQLVESGGGLVQAGGSLRLSCAASGRIFYRYAMGWYRQAPGKERELVAAISRTGSRTYYADSVKGRFTISRDNAKNTVYLQMNSLKPEDTAVYYCNKVSAPAEFRSRGYWGQGTQVTVSS | high polyreactivity |
| QVQLEESGGGLVQAGGSLRLSCAASGFILEYYAMGWSRQATGKETELVSTISSGGSTNYADSVKGRFTISSDNAKNTVYFQMNRLKPEDTAVFYCAAARYTLSRYYYWGQGTQLTVSS | high polyreactivity |
| QVQLVESGGGLVQAGGSLRLSCAASGRIFGYYAMGWYRQAPGKERELVAAISYRGSSTYYADSVKGRFTISRDNAKNTVYLQMNSLKPEDTAVYYCAAKGHGRTYDYWGQGTQVTVSS | high polyreactivity |
| QVQLVESGGGIVQAGGSLRLSCAASGRTSWYYAMGWYRQAPGKERELVAAITASGGSTYADSVKGRFTISRDNAKTSVYLQMNRLKPEDSAVYYCAAERPYSRVGYYYWGQGTQVTVSS | high polyreactivity |
| QVQLVESGGGLVQAGGSLRLSSAASGRIFRPYAMGWYRPAPGKERELVAIRKSTGSTYYADSVKGRFTISRDNAKITVYLQMNSLKPEHTAVYYCAAPRDWDAGDYWGQGTQVTVSS | high polyreactivity |
| QVQLVESGGGLVQAGGSLRLSCAASGTIPGYAMGWYRQAPGKETELVAAITWSDDSTFYADSVKGRFTISRDNAKNTVYLQMNSLKPEDTAVYYCAAEYVVSTQEFDYWGQGTQVTVSS | low polyreactivity |
| QVQLVESGGGLVQAGGSLRISCAASGRTFDSYAMGWYIQAPGKEREFVAAISYSGTSTYYADSVKGRFTISRDYAKNTVYLQMNSLIPEDTAVYYCAKEFIFRLWGQGTQVTVSS | low polyreactivity |
| QVQLVESGGGLVQSGGSLRLSCAASGYIFGYYAMGWYRQAPGKERELVAAITGTDDTYYADSVKGRFTISRDNAKNTVYLQMNSLKPEDTAVYYCAAYSWWNEYDYWGQGTQVTVSS | high polyreactivity |
